Substitutions are numbered along the chain they refer to.
T1: recombinant human IL-6R alpha protein Leu20-Asp358 (human, UniProt P08887 20-358)
T1 construct: human IL-6 receptor alpha, Leu20-Asp358; no tags in the Biacore assay; also called rhIL-6R; IL-6 receptor; source: bought: R&D Systems, Bio-Techne; Spodoptera frugiperda Sf21, baculovirus-derived
T1 sequence (looked up): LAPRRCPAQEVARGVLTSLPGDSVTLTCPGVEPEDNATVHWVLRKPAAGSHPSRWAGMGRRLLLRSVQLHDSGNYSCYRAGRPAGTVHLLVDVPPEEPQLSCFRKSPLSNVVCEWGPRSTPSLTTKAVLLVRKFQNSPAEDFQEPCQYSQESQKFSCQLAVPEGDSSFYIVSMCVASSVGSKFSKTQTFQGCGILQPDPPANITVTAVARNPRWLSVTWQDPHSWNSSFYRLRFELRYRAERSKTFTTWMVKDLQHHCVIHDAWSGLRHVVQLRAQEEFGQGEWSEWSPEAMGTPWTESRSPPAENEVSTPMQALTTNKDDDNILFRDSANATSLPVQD

T2: mouse IL-6 receptor on peritoneal macrophages (mouse (endogenous in peritoneal …, UniProt P22272 20-460))
T2 construct: IL-6 receptor alpha, mouse, endogenous on peritoneal macrophages, detected with goat anti-mouse IL-6R antibody; also called IL-6Rα; source: endogenous, on murine peritoneal macrophages
T2 sequence (looked up): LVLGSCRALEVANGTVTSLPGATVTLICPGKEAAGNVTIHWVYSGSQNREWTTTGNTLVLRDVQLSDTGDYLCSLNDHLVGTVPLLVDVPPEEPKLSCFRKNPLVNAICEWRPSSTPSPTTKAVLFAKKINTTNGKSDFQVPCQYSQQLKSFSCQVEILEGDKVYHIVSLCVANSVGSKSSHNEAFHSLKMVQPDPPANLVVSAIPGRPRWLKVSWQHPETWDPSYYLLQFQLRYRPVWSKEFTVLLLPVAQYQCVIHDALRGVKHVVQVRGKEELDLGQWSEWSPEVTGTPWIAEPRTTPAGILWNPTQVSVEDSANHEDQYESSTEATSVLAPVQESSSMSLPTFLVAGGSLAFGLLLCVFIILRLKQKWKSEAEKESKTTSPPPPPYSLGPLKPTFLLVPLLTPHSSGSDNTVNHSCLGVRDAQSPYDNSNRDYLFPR

B1: recombinant human CIRP (cold-inducible RNA-binding protein) (natural protein, UniProt Q14011 1-172, looked up)
chain: MASDEGKLFVGGLSFDTNEQSLEQVFSKYGQISEVVVVKDRETQRSRGFGFVTFENIDDAKDAMMAMNGKSVDGRQIRVDQAGKSSDNRSRGYRGGSAGGRGFFRGGRGRGRGFSRGGGDRGYGGNRFESRSGGYGGSRDYYSSRSQSGGYSDRSSGGSYRDSYDSYATHNE
notes: also called rhCIRP; eCIRP; source: bought: Origene
B2: recombinant murine CIRP (cold-inducible RNA-binding protein) (natural protein, mouse, UniProt P60824 1-172, looked up)
chain: B1 chain with S21A, G109S, N126G, S143A, S148G, G150S, S152G, D153Y
notes: also called rmCIRP

How the values were obtained:
[1] = target: T1, recombinant human IL-6R alpha protein …; assay: SPR; Biacore 3000; rhIL-6R immobilised on a CM5 chip (amine coupling, 10 mM sodium acetate pH 4.5); rhCIRP as analyte 0-1.0 uM; 1x PBS with 0.01% Tween-20, pH 7.4; 30 uL/min, 25°C; global fit to the Langmuir model for 1:1 binding; conditions: both partners purified
[2] = target: T2, mouse IL-6 receptor on peritoneal …; assay: FRET or BRET; peritoneal macrophages in a 96-well plate treated with rmCIRP for 10 minutes at 4°C, fixed with 4% paraformaldehyde, stained with anti-CIRP and anti-IL-6R or anti-CD11b antibodies and Cy3- and Cy5-labelled secondary antibodies; FRET units from cell-associated fluorescence (Biotek Synergy Neo2); conditions: one partner purified

| Binder | Kd [1] | fold increase in FRET units against the negative control CD11b [2] |
| --- | --- | --- |
| B1 | 98 nM |  |
| B2 |  | 17 fold |

— paper PMC7141386, “Extracellular CIRP induces macrophage endotoxin tolerance through IL-6R–mediated STAT3 activation” (JCI Insight, 2020)
